Data published in patent US5162203A, “Methods of measuring isozymes and isozyme classes of alcohol dehydrogenase” (President and Fellows of Harvard College, priority 1989, dated 1992).
Values joined by “and” are separate entries in the source; they are usually repeats but may differ in a detail not shown here. Identical values can stand only once.

Columns and labels:
[1] = Effect of storage conditions and time on ADH activity in serum; type: physicochemical, human
Method: Fresh serum samples were obtained from the Clinical Chemistry Laboratory at Brigham and Women's Hospital, Boston, Mass. All serum measurements reported herein were performed within 5 hours of phlebotomy unless otherwise indicated On storage there is considerable variation in the ADH activity of serum samples from the same and different patients. FIGS. 5A and 5B show the effect of storage at 4° C. (closed circles) and room temperature (closed squares) in a typical serum sample, using substrate IA (FIG. 5A) and substrate IIA (FIG. 5B) as measured by the four-assay procedure of Example 4.

[2] = Specific activity of purified ADH isozymes in ethanol oxidation assay; type: biochemical
Text: The isozymes used as primary standards were homogeneous based on SDS-polyacrylamide, urea-polyacrylamide and starch gel electrophoresis as described above. […] Using ethanol as substrate in a conventional ADH assay as described in part 8 of this Example, the specific activity of each purified ADH isozyme was established by monitoring NADH production by the change in absorbance at 340 nm on a Cary 219 spectrophotometer calibrated with potassium chromate absorbance standards (Fisher Chem. Co., Medford, MA) The activity of the purified ADH Class I isozymes were also assayed according to methods of the present invention (Examples 1 (part 8), 2 and 4).
A modification of the procedure of Ditlow et al., 1984, Biochemistry 23:6363-68, was used to purify Class II ADH from human livers proceeding from the preparation of Class I isozymes as described in subpart (a) above. The effluent of the CapGapp column obtained during the loading and binding of Class I was concentrated to about 200 ml in an Amicon concentrator with a PM.30 membrane and dialyzed 16 hours against 10 liters of 10 mM potassium phosphate, 0.1 mM DTT, pH 7.4 containing 10 μM octanal. The sample was applied to a column (3×5 cm) of agarose-AMP affinity resin at a flow rate of 0.5 ml/minute followed by washing of the column with 200 ml of the dialysis buffer. The bound enzyme was eluted with 150 ml of the dialysis buffer with a gradient of NADH from 0 to 66 μg/ml.
Standard assays for ethanol oxidation activity (Dalziel, 1957, Acta Chem Scand 11:1706-23) were carried out on a Cary 219 spectrophotometer interfaced with an Apple IIe microcomputer, using software provided by Varian Associates. The reaction mixture contained 2.5 mM NAD^+ in 0.1M glycine-NaOH buffer. pH 10.0, and 33 mM or 0.2M ethanol for Class I and Class II ADH, respectively.

[3] = Reconstitution of purified ADH in inactive diluted human serum, substrate IIA; type: biochemical; details: Class II, 50-fold diluted serum, listed as II
Method: The ADH isozymes employed were electrophoretically homogeneous with symmetrical HPLC elution profiles and had the highest constant specific activity. Their activity was established both by the standard A340 assay using ethanol and using substrates IA and IIA under conditions described herein, but in the absence of serum.
After the residual background reaction was recorded, a purified ADH isozyme prepared as described in Example 1 was then added and the rate measured as described in part 8 of Example 1. All measurements were made in triplicate.

[4] = target: ADH in human serum (Class II) (Homo sapiens, UniProt P08319); assay: Fluorometric measurement of serum ADH activity with substrate IIA; type: biochemical; details: Class II, substrate IIA
Method: All reaction mixtures (3 ml total volume) were prepared directly in 1 cm pathlength, 4 ml fluorometric cuvettes by adding 150 μl of the 300 μM substrate solution (e.g substrate IA or IIA) 100 μl of the 1 mM NADH solution (prepared as in part 5 above) and 2.69 ml of assay buffer (0.1M phosphate, pH 7.6). After thermal equilibration (25° C.) for 5 minutes, 60 μl of isozyme sample (either serum or purified ADH isozymes) was added to the cuvette.
The linear increase of fluorescence was then recorded for 1-10 minutes, until 0.03-1 μM of substrate was consumed. Larger substrate consumption was not found to be desirable (described in subpart (c) below). […] The added product fluorescence intensity was then measured Fluorescence measurements were optimized for samples with low activity (<1 nM/minute). […] Rates measured in the presence of the 0.2 mM ADH inhibitors. […]
The rates of aldehyde reduction, determined as initial velocities (V) and expressed in units of nM/minute, were calculated according to: [formula] where the quantity in parentheses is the slope of the linear fluorescence increase calculated from the quantities Ft and FO, the fluorescence at time t and at the beginning of the reaction, respectively. Cst is the concentration of the product used as a standard added to the cuvette after the initial rate had been measured and Fst is the fluorescence intensity of the added product […]

B1: Class II ADH: human liver Class II alcohol dehydrogenase (protein, UniProt P08319 1-380, looked up)
All-trans-retinol …: MGTKGKVIKCKAAIAWEAGKPLCIEEVEVAPPKAHEVRIQIIATSLCHTDATVIDSKFEGLAFPVIVGHEAAGIVESIGPGVTNVKPGDKVIPLYAPLCRKCKFCLSPLTNLCGKISNLKSPASDQQLMEDKTSRFTCKGKPVYHFFGTSTFSQYTVVSDINLAKIDDDANLERVCLLGCGFSTGYGAAINNAKVTPGSTCAVFGLGGVGLSAVMGCKAAGASRIIGIDINSEKFVKAKALGATDCLNPRDLHKPIQEVIIELTKGGVDFALDCAGGSETMKAALDCTTAGWGSCTFIGVAAGSKGLTIFPEELIIGRTINGTFFGGWKSVDSIPKLVTDYKNKKFNLDALVTHTLPFDKISEAFDLMNQGKSVRTILIF
In the case of B1, the “Average Activity Retained” value ([1]; 4 °C, 2 days) is reported as 55%, the “Average Activity Retained” value ([1]; 23 °C, 1 day) is reported as 66% and the “Average Activity Retained” value ([1]; 23 °C, 2 days) is reported as 51%. For the same molecule, the “stability of activity in serum” value ([1]; -70° C.) was “at least one month”, the “Average Activity Retained” value ([1]; -70 °C, 30 days) was 100% and the “half-life of ADH activity in sera” value ([1]; room temperature) was “a few hours to >3 days”. The specific activity ([2]; purified Class II ADH) was 1.5 U/mg, the Recovery [3] was 82.0% and 83.4% and 85.9% and 81.3% and the “limit of detection as isozyme concentration” value [4] was 0.17 nM.

B2: β1 β1: Class I human ADH isozyme, β1 homodimer (protein, UniProt P00325 2-375, looked up)
All-trans-retinol …: STAGKVIKCKAAVLWEVKKPFSIEDVEVAPPKAYEVRIKMVAVGICHTDDHVVSGNLVTPLPVILGHEAAGIVESVGEGVTTVKPGDKVIPLFTPQCGKCRVCKNPESNYCLKNDLGNPRGTLQDGTRRFTCRGKPIHHFLGTSTFSQYTVVDENAVAKIDAASPLEKVCLIGCGFSTGYGSAVNVAKVTPGSTCAVFGLGGVGLSAVMGCKAAGAARIIAVDINKDKFAKAKELGATECINPQDYKKPIQEVLKEMTDGGVDFSFEVIGRLDTMMASLLCCHEACGTSVIVGVPPASQNLSINPMLLLTGRTWKGAVYGGFKSKEGIPKLVADFMAKKFSLDALITHVLPFEKINEGFDLLHSGKSIRTVLTF
modifications: homodimer
notes: Class I human ADH isozyme, β1 homodimer
Molecule B2 has a specific activity ([2]; ethanol oxidation, pH 10) of 0.42 U/mg.

B3: γ1γ1: Class I human ADH isozyme, γ1 homodimer (protein, UniProt P00326 2-375, looked up)
Alcohol dehydrogenase 1C: STAGKVIKCKAAVLWELKKPFSIEEVEVAPPKAHEVRIKMVAAGICRSDEHVVSGNLVTPLPVILGHEAAGIVESVGEGVTTVKPGDKVIPLFTPQCGKCRICKNPESNYCLKNDLGNPRGTLQDGTRRFTCSGKPIHHFVGVSTFSQYTVVDENAVAKIDAASPLEKVCLIGCGFSTGYGSAVKVAKVTPGSTCAVFGLGGVGLSVVMGCKAAGAARIIAVDINKDKFAKAKELGATECINPQDYKKPIQEVLKEMTDGGVDFSFEVIGRLDTMMASLLCCHEACGTSVIVGVPPDSQNLSINPMLLLTGRTWKGAIFGGFKSKESVPKLVADFMAKKFSLDALITNILPFEKINEGFDLLRSGKSIRTVLTF
modifications: homodimer
notes: Class I human ADH isozyme, γ1 homodimer
In the case of B3, the specific activity ([2]; ethanol oxidation, pH 10) is reported as 4.4 U/mg.
